Test results: paper doi:10.1101/2025.07.22.666160, “Alphaherpesvirus pUL21 homologues use non-canonical motifs to compete with cellular adaptors for protein phosphatase 1 binding” (bioRxiv, 2025)
Primed or numbered codes have the meaning given here. Where no end group is shown, it is not given here. FITC′ = fluorescein isothiocyanate; Ahx = NCCCCCC(=O)O

Key:
Details in all cases: both partners purified
[1] = target: T1, mouse PP1γ catalytic domain (residues 7–300)-H6 (mouse, UniProt P63087 7-300); assay: ITC; 25°C; 50 mM HEPES pH 8.0, 500 mM NaCl, 0.5 mM TCEP; 12 x 3 µL injections; one-site binding model; syringe and cell contents in Table S1
T1 construct: Protein phosphatase 1 gamma catalytic domain, mouse, residues 7-300; also called PP1 catalytic domain; source: E. coli T7 Express lysY/Iq, purified (Ni-NTA, SEC)
T1 sequence (P63087 7-300): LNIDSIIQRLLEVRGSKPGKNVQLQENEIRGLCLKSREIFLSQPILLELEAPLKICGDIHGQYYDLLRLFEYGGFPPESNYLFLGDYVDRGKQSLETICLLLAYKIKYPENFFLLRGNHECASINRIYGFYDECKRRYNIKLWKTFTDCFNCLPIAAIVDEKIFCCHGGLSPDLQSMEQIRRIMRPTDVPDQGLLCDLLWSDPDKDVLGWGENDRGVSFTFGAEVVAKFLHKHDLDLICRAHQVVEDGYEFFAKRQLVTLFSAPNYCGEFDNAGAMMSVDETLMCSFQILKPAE

[2] = target: T1, mouse PP1γ catalytic domain (residues …); assay: fluorescence polarisation; competition fluorescence anisotropy; competitor titrated into a pre-formed complex of 2 nM FITC-GADD34 peptide and 250 nM PP1γ (final); 27°C; 50 mM HEPES pH 8.0, 500 mM NaCl, 0.05% TWEEN-20
[3] = target: T1, mouse PP1γ catalytic domain (residues …); assay: fluorescence polarisation; fluorescence anisotropy; serial dilution of PP1γ catalytic domain with 2 nM FITC-GADD34 peptide; 27°C; 50 mM HEPES pH 8.0, 500 mM NaCl, 0.05% TWEEN-20; one-site model
[4] = target: T1, mouse PP1γ catalytic domain (residues …); assay: fluorescence polarisation; fluorescence anisotropy; serial dilution of PP1γ catalytic domain with 2 nM FITC-GADD34 peptide; Tris pH 8.5 in place of HEPES pH 8
[5] = target: T1, mouse PP1γ catalytic domain (residues …); assay: fluorescence polarisation; competition fluorescence anisotropy; pUL21 titrated into a pre-formed complex of 2 nM FITC-GADD34 peptide and 250 nM PP1γ; Tris pH 8.5 in place of HEPES pH 8

B1: pORF38-NLT-H6 (residues 1–263) (domain or fragment)
chain: MEFPYHSTVSYNGVTFYFNERATRAYFICGGCLISIPRKHGGEIAKFGHVVRGVGPGDRSVASYVRSELNRTGKTWAVSSNNNCVFLDRVALLAAGSGAVDRDLCGTFDVEVEDPTLADYLVSLPVTHLTLVAGVDVTRENKLKLFPTPTAINTTNGFMYVPNEASFSLVYMRMLELPESLQELVSGLFDGTPEIRDALNGSNDDEKTSIIVSRRAADVVTEDVKADDVPISGEPYSEKQPRRRKKSDHITLSNFVQIRTIPR
notes: VZV pORF38 residues 1-263: N-terminal domain plus linker region to the end of the TROPPO motif (NLT region); Sub-cloned into the vector pOPTnH; also called pOPF38-NLT; source: E. coli T7 Express lysY/Iq, purified (Ni-NTA, SEC); not shown: His6, C-terminal, kept
In the case of B1, the Kd [1] is reported as 497 nM, the “stoichiometry N” value [1] is reported as 1 and the IC50 [2] is reported as 417 nM.

B2: GADD34 RVxF+ϕϕ[xF] peptide (residues 552–568), FITC-labelled (peptide)
peptide: {FITC′-Ahx}-KARKVRFSEKVTVHFLA
notes: GADD34 (PP1 regulatory subunit 15A, PPP1R15A), residues 552-568 with the RVxF and ϕϕ[xF] motifs; also called GADD34 peptide; fluorescent GADD34 peptide; source: synthetic peptide (GenScript, >95% purity)
For B2, the Kd [3] was 144 nM and the Kd [4] was 55 nM.

B3: pUL21-RVxF-H6 (A237V+V239F) (natural protein)
chain: MELSYATTMHYRDVVFYVTTDRNRAYFVCGGCVYSVGRPCASQPGEIAKFGLVVRGTGPDDRVVANYVRSELRQRGLQDVRPIGEDEVFLDSVCLLNPNVSSELDVINTNDVEVLDECLAEYCTSLRTSPGVLISGLRVRAQDRIIELFEHPTIVNVSSHFVYTPSPYVFALAQAHLPRLPSSLEALVSGLFDGIPAPRQPLDAHNPRTDVVITGRRAPRPIAGSGAGSGGAGAKRVTFSEFVQVKHIDRVGPAGVSPAPPPNNTDSSSLVPGAQDSAPPGPTLRELWWVFYAADRALEEPRADSGLTREEVRAVRGFREQAWKLFGSAGAPRAFIGAALGLSPLQKLAVYYYIIHRERRLSPFPALVRLVGRYTQRHGLYVPRPDDPVLADAINGLFRDALAAGTTAEQLLMFDLLPPKDVPVGSDVQADSTALLRFIESQRLAVPGGVISPEHVAYLGAFLSVLYAGRGRMSAATHTARLTGVTSLVLAVGDVDRLSAFDRGAAGAASRTRAAGYLDVLLTVRLARSQHGQSV
notes: HSV-1 pUL21 with A237V and V239F, made from pUL21-H6 (the full-length protein) by site-directed mutagenesis; methods, results and legend say V239F; also called RVxF pUL21; A237V+V239F (RVxF) mutant; source: E. coli T7 Express lysY/Iq, purified (Ni-NTA, SEC); not shown: His6, C-terminal, kept
With B3 the IC50 [5] was 337 nM.
